± gives the uncertainty stated by the source.
B1: POU domain, class 4, transcription factor 3, residues 185 to 256; numbered along this chain, Q15319 (parent)
chain: RELEAFAERFKQRRIKLGVTQADVGAALANLKIPGVGSLSQSTICRFESLTLSHNNMIALKPVLQAWLEEAE

Variants of: B1
Assay: abundance fitness (aPCA) (normalised: wild type 0, dead -1); higher = more abundant; growth selection in yeast, the domain comes from the species named
Conditions: Homo sapiens

| Variant | abundance fitness |
| --- | --- |
| RELEAFAERFKQRRIKLGVTQADVGAALANLKIPGVGSLSQSTICRFESLTLTHNNMIALKPVLQAWLEEAE [S53T] | -0.208 ± 0.11 |
| RELEAFAERFKQRRIKLGNTQADVGAALANLKIPGVGSLSQSTICRFESLTLSHNNMIALKPVLQAWLEEAE [V19N] | -0.154 ± 0.077 |
| RELEAFAERFKQRRIKLGVTQADVGAALANLKIPGVGSLFQSTICRFESLTLSHNNMIALKPVLQAWLEEAE [S40F] | -0.468 ± 0.11 |
| RELEAFAERFKQRRIKLGVRQADVGAALANLKIPGVGSLSQSTICRFESLTLSHNNMIALKPVLQAWLEEAE [T20R] | -0.258 ± 0.022 |
| RELEAFAERFKQRRIKLGVGQADVGAALANLKIPGVGSLSQSTICRFESLTLSHNNMIALKPVLQAWLEEAE [T20G] | -0.25 ± 0.03 |
| RELEAFAERFKQRRIKLGVTQADVGAALANLKISGVGSLSQSTICRFESLTLSHNNMIALKPVLQAWLEEAE [P34S] | -0.124 ± 0.061 |
| RELEAFAERFKQRRIKLGVTQADVGAALANLKIAGVGSLSQSTICRFESLTLSHNNMIALKPVLQAWLEEAE [P34A] | 0.029 ± 0.15 |
| RELEAFAERFKQRRIKLGVTQADVGAALANLKIIGVGSLSQSTICRFESLTLSHNNMIALKPVLQAWLEEAE [P34I] | -0.419 ± 0.32 |
| RELEAFAERFKQRRIKLGVTQADVGAAMANLKIPGVGSLSQSTICRFESLTLSHNNMIALKPVLQAWLEEAE [L28M] | -0.095 ± 0.15 |
| RELEAFAERFKQRRIKLGVTQADVGAALANLKIPGVGSLSQSTICRFESLTLSHNNMIAGKPVLQAWLEEAE [L60G] | -0.638 ± 0.5 |
| RELEAFAERFKSRRIKLGVTQADVGAALANLKIPGVGSLSQSTICRFESLTLSHNNMIALKPVLQAWLEEAE [Q12S] | -0.083 ± 0.047 |
| RELEAFAERFKQRRIKLGVTQADVGKALANLKIPGVGSLSQSTICRFESLTLSHNNMIALKPVLQAWLEEAE [A26K] | 0.04 ± 0.047 |
| RELEAFAERFKQRRIKLGVTQADVGAALANLKIPGVGSLSQSTICRFESLTLSHNNMIALKPVLQALLEEAE [W67L] | -0.549 ± 0.052 |
| RELEAFAERFKQRRIKLGVTQADVGAALANLKIPGVGSLSQSTIMRFESLTLSHNNMIALKPVLQAWLEEAE [C45M] | -0.048 ± 0.083 |
| RELEAFAERFKQRRIKLGVTQADVGAALANLKIPGVGSLSQSTIHRFESLTLSHNNMIALKPVLQAWLEEAE [C45H] | 0.053 ± 0.079 |
| RELEAFAERFKQRRQKLGVTQADVGAALANLKIPGVGSLSQSTICRFESLTLSHNNMIALKPVLQAWLEEAE [I15Q] | -0.321 ± 0.12 |
| RELEAFAERFKQRRIKLGVTQADSGAALANLKIPGVGSLSQSTICRFESLTLSHNNMIALKPVLQAWLEEAE [V24S] | -0.785 ± 0.041 |
| RELEAFAERFKQRRIKLGVTQADFGAALANLKIPGVGSLSQSTICRFESLTLSHNNMIALKPVLQAWLEEAE [V24F] | -0.709 ± 0.036 |
| RELEAFAERFKQRRIKLGVTQADVGAALHNLKIPGVGSLSQSTICRFESLTLSHNNMIALKPVLQAWLEEAE [A29H] | -0.083 ± 0.14 |

| Variant | abundance fitness |
| --- | --- |
| RELEAFAERFKQRRIKLGVTQADVGAALANLKSPGVGSLSQSTICRFESLTLSHNNMIALKPVLQAWLEEAE [I33S] | -0.764 ± 0.19 |
| REKEAFAERFKQRRIKLGVTQADVGAALANLKIPGVGSLSQSTICRFESLTLSHNNMIALKPVLQAWLEEAE [L3K] | -0.482 ± 0.083 |
| RELEAFAERFYQRRIKLGVTQADVGAALANLKIPGVGSLSQSTICRFESLTLSHNNMIALKPVLQAWLEEAE [K11Y] | -0.474 ± 0.077 |
| RELEAFAERFKQRRIKLGVTQADVGAALANLKIPGEGSLSQSTICRFESLTLSHNNMIALKPVLQAWLEEAE [V36E] | -0.055 ± 0.2 |
| RELEAFAERFKQRRIKLGVTQADVGAALANLKIPGVGSLSQSTICRFESLTLSHNNMIALKPVLQAWLELAE [E70L] | -0.323 ± 0.029 |
| RELEAFAERFKQRRIKLGVTQADVGAALANLKIPGVGSLSQSTICRFESLTLSHNNMIALKPVLQAWLEEAQ [E72Q] | -0.263 ± 0.042 |
| RELEAFAERRKQRRIKLGVTQADVGAALANLKIPGVGSLSQSTICRFESLTLSHNNMIALKPVLQAWLEEAE [F10R] | -0.653 ± 0.33 |
| RELEAFHERFKQRRIKLGVTQADVGAALANLKIPGVGSLSQSTICRFESLTLSHNNMIALKPVLQAWLEEAE [A7H] | -0.707 ± 0.099 |
| RELEAFAERFKQRRIKLGVTQADVGAALANLSIPGVGSLSQSTICRFESLTLSHNNMIALKPVLQAWLEEAE [K32S] | -0.031 ± 0.032 |
| RELEAFAERFKQRRIKLGVTQADVGAALANLEIPGVGSLSQSTICRFESLTLSHNNMIALKPVLQAWLEEAE [K32E] | 0.034 ± 0.067 |
| RELEAFAERFKQYRIKLGVTQADVGAALANLKIPGVGSLSQSTICRFESLTLSHNNMIALKPVLQAWLEEAE [R13Y] | -0.133 ± 0.074 |
| RELEAFAERFKQRRIKLGVTQADVGAYLANLKIPGVGSLSQSTICRFESLTLSHNNMIALKPVLQAWLEEAE [A27Y] | -0.084 ± 0.088 |
| RELEAFAERFKQRRIKLGVTQADVGAALANLKIPGVGSLSQSTICRFESLTLSHNNMIALKPILQAWLEEAE [V63I] | 0.055 ± 0.051 |
| RELEAFAERFKQRRIKLGVTQADVGAALANLKIPGVGSLSQSTICRFESQTLSHNNMIALKPVLQAWLEEAE [L50Q] | 0.124 ± 0.07 |
| RELEAFAERFKQRRIKLGVTQADVGAALANLKIPGVGSLSQSTICRFESLTLSHNNMIALMPVLQAWLEEAE [K61M] | 0.02 ± 0.1 |
| RELEAFAERFKQRRIKLGVTQADVGAALANLKIPGVGSLSQSTICRFESLTLSHNNMIALKPVLQAWLEEGE [A71G] | -0.226 ± 0.03 |
| RELEAFAERFKQRRIKLGVTQADVGAALANLKIPGVGSLSQSTICRFESLTLSHNNMIALKPVLVAWLEEAE [Q65V] | -0.085 ± 0.21 |
| RELEAFAERFKQRRIKLLVTQADVGAALANLKIPGVGSLSQSTICRFESLTLSHNNMIALKPVLQAWLEEAE [G18L] | -0.703 ± 0.064 |
| RKLEAFAERFKQRRIKLGVTQADVGAALANLKIPGVGSLSQSTICRFESLTLSHNNMIALKPVLQAWLEEAE [E2K] | -0.121 ± 0.26 |

Source: the Human Domainome abundance scans (Beltran et al. 2025)
